Measured values as given in the supplement of paper PMC11136658.

Test system: peptide library, one residue held at a place counted from the Y acceptor
Assay: relative phosphorylation of the sub-library (ratio to the mean residue at this position); higher = residue favoured
How it was run: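 Biotinylated Tyr-centred peptide library mixtures, each fixing one residue at one position from −5 to +5, were incubated with purified recombinant kinases in 384-well plates for 90 min with 50 μM ATP plus γ-32P-ATP. Streptavidin membranes captured the peptides, which were rinsed and quantified by phosphorimaging and ImageQuant. At each position, intensities were divided by the sum of the 18 randomized residues (16 for the Ser/Thr-free library) and multiplied by that number. Each value is phosphorylation relative to the mean randomized residue.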

Chain of RET, construct: aa658-end, human (P07949 658-1114, looked up): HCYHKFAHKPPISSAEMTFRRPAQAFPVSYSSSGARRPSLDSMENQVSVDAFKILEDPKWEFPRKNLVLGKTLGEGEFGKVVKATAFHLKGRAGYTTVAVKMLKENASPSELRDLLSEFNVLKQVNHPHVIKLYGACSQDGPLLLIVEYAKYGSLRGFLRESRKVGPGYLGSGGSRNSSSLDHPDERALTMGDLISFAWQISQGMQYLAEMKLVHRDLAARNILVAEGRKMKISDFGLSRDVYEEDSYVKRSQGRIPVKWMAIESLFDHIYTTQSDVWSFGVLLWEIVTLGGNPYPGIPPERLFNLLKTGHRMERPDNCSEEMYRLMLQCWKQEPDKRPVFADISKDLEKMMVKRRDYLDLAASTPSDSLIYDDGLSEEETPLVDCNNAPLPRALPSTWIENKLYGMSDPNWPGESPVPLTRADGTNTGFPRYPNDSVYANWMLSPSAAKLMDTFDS
Chain of ROS1, construct: aa1883-end, human (P08922 1883-2347, looked up): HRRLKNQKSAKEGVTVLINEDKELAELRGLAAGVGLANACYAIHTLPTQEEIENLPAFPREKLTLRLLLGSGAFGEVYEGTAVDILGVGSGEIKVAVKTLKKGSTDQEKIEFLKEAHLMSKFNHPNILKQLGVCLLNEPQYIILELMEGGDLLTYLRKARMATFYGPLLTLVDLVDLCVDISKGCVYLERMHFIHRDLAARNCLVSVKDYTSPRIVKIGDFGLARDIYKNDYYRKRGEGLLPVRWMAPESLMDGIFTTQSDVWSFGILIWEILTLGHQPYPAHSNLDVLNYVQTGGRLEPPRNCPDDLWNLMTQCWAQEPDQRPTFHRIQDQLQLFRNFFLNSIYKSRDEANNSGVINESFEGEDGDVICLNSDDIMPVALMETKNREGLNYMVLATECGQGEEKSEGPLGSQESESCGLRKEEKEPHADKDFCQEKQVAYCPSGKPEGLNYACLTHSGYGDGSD

RET, construct: aa658-end, human (from UniProt P07949)
relative phosphorylation
Conditions	at +1	at +2	at +3	at +4	at +5	at -1	at -2	at -3	at -4	at -5
A fixed	0.957	0.877	0.845	0.859	0.923	0.865	0.967	0.857	1.08	1.05
D fixed	0.306	0.726	0.705	0.87	0.823	1.29	0.865	1.04	1.02	0.925
E fixed	0.415	0.976	0.636	0.831	0.783	1.2	0.885	1.43	1.1	0.86
F fixed	1.49	1.1	1.12	1.14	0.844	1.02	0.624	0.934	0.881	0.91
G fixed	0.541	0.643	0.88	1.05	1.44	0.5	1.34	1.18	1.27	1.23
H fixed	1.37	0.942	1.17	1.1	1.14	1.4	1.04	1.11	1	1.04
I fixed	1.59	0.802	1.28	0.73	0.765	1.46	0.674	0.606	0.749	0.786
K fixed	0.629	0.939	0.582	1.12	1.17	0.656	1.3	1.11	1.26	1.33
L fixed	1.41	1.07	1.09	0.83	0.76	1.12	0.768	0.748	0.888	0.872
M fixed	1.29	0.996	1.2	1.01	0.972	0.76	0.712	0.769	0.931	0.875
N fixed	0.513	1.21	0.865	1.08	1.09	1.29	1.2	1.14	0.859	1.05
P fixed	0.494	0.965	1.24	1.17	1.54	0.896	1.19	1.15	1.23	1.1
Q fixed	1.06	1.11	1.01	1.22	1.05	1	1.26	0.964	1.16	1.05
R fixed	1.02	1.37	0.818	1.34	1.29	0.672	1.52	1.3	1.31	1.42
S fixed	0.889	0.97	0.884	0.888	1	0.695	1.24	1.09	0.89	0.95
T fixed	0.943	1.01	0.962	0.874	0.952	0.984	1.04	1.04	0.757	0.892
V fixed	1.42	0.924	1.15	0.775	0.635	1.12	0.708	0.646	0.735	0.773
W fixed	1.66	1.37	1.56	1.11	0.819	1.07	0.668	0.879	0.883	0.882
pThr fixed	0.469	1.04	0.392	0.595	0.607	0.878	0.723	1.02	0.966	0.876
pTyr fixed	1.17	1.45	0.459	0.586	0.622	1.46	0.933	1.85	1.23	1.15

ROS1, construct: aa1883-end, human (from UniProt P08922)
relative phosphorylation
Conditions	at +1	at +2	at +3	at +4	at +5	at -1	at -2	at -3	at -4	at -5
A fixed	1.4	0.764	0.709	0.96	0.93	1.04	1.06	0.892	1.22	1.17
D fixed	0.482	0.396	0.211	0.611	0.583	1.09	0.882	0.994	1.09	0.993
E fixed	0.947	0.547	0.174	0.772	0.512	1.09	1.1	1.04	1.18	0.873
F fixed	1.06	1.19	1.65	1.19	1.47	0.882	0.738	0.932	0.878	0.868
G fixed	0.696	0.581	0.722	1.09	1.1	0.835	1.2	1.2	1.36	1.31
H fixed	1.07	0.954	1.67	1.13	0.93	1.21	1.07	1.09	0.888	0.99
I fixed	1.33	0.963	1.57	0.865	0.776	1.11	0.797	0.727	0.827	0.878
K fixed	0.501	1.3	0.858	1.27	1.3	0.592	1.01	0.968	1.04	1.08
L fixed	1.37	1.41	1.49	0.918	0.831	1.33	0.872	0.863	0.995	0.882
M fixed	1.36	1.17	1.33	1.07	0.873	0.975	0.733	0.828	0.855	0.922
N fixed	0.551	1.04	0.581	0.88	0.981	1.29	1.1	1.2	0.935	1.05
P fixed	0.446	0.904	0.532	0.972	1.64	1.45	1.29	1.23	1.19	1.24
Q fixed	1.09	0.94	0.669	1.14	0.958	0.964	1.16	0.915	1.11	0.963
R fixed	0.649	1.31	1.07	1.31	1.25	0.533	1.1	1.09	0.982	1.12
S fixed	1.26	1.01	0.793	0.979	1.2	0.975	1.18	1.17	0.898	0.967
T fixed	1.25	0.937	0.922	0.87	0.894	0.906	1.02	1.07	0.724	0.93
V fixed	1.42	1.08	1.27	0.988	0.622	0.976	0.906	0.824	0.859	0.879
W fixed	1.1	1.5	1.77	0.989	1.16	0.762	0.774	0.976	0.972	0.891
pThr fixed	0.802	0.447	0.162	0.305	0.359	0.848	0.859	0.877	0.86	0.871
pTyr fixed	1.06	0.646	0.306	0.529	0.409	1.74	1.03	1.15	1.09	0.896

SRC, construct: Full length, human (from UniProt P12931)
relative phosphorylation
Conditions	at +1	at +2	at +3	at +4	at +5	at -1	at -2	at -3	at -4	at -5
A fixed	1.71	1.04	0.531	0.882	1.03	0.537	1.09	0.87	1.12	1.01
D fixed	0.651	0.589	0.472	0.783	0.787	0.691	1.57	1.93	1.48	1.36
E fixed	1.43	1.36	0.454	0.876	0.704	0.984	1.82	2.66	1.68	1.23
F fixed	0.696	1.21	3.63	1.19	1.24	0.688	0.649	0.959	1.2	1.03
G fixed	3.59	0.728	0.679	1.29	1.06	0.492	1.2	0.937	1.15	1.16
H fixed	0.667	0.556	0.874	0.983	0.891	0.504	0.917	0.842	0.875	0.871
I fixed	0.83	1.39	2.12	0.89	0.817	4.34	0.76	0.663	0.902	0.826
K fixed	0.229	0.535	0.369	0.982	1.06	0.229	0.522	0.462	0.566	0.758
L fixed	0.605	0.987	1.36	0.876	1.05	1.6	0.878	0.694	0.954	0.899
M fixed	1.09	1.09	0.913	1.19	0.87	0.764	0.657	0.765	0.91	0.901
N fixed	0.456	0.648	0.407	0.737	0.725	0.294	1.17	1.18	0.793	1.09
P fixed	0.274	0.7	0.453	0.931	1.49	1.11	1.26	0.814	1.17	1.21
Q fixed	0.764	0.802	0.416	1.08	0.851	0.378	1.11	1.01	0.941	0.976
R fixed	0.297	0.685	0.637	1.14	1.24	0.213	0.598	0.541	0.673	0.808
S fixed	1.04	1.67	0.626	0.932	1.15	0.385	1.18	0.971	0.797	0.955
T fixed	0.976	1.5	0.709	0.94	0.926	1.28	0.896	0.901	0.692	0.848
V fixed	1.14	1.39	1.5	0.919	0.947	2.86	0.834	0.664	0.784	0.82
W fixed	1.55	1.13	1.84	1.39	1.16	0.651	0.886	1.14	1.31	1.27
pThr fixed	1.52	1.76	0.528	0.686	0.645	2.28	1.83	1.46	1.3	1.37
pTyr fixed	3.88	2.03	0.798	1.32	0.829	1.27	1.55	1.66	1.97	1.46
